B1: hMAK195-21-h10F7-A6.8 DVD-Ig (bispecific antibody, human IgG1, kappa, L234A L235A)
heavy: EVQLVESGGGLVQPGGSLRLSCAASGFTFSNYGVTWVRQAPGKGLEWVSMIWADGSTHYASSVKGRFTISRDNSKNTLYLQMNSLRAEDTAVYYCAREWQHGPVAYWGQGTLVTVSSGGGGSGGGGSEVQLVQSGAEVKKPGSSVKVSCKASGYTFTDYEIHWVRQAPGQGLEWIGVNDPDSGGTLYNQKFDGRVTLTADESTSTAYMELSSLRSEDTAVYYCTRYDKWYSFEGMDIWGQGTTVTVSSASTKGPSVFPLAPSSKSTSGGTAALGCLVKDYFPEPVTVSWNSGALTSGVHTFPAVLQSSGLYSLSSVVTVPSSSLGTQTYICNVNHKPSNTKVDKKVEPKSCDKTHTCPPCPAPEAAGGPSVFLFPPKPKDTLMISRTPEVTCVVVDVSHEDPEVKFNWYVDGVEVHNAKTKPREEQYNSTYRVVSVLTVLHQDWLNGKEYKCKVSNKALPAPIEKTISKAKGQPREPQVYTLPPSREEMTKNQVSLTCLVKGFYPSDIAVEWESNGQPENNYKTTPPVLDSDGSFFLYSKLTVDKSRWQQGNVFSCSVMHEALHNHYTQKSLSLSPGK
light: DIQMTQSPSSLSASVGDRVTITCRASQLVSSAVAWYQQKPGKAPKLLIYWASARHTGVPSRFSGSGSGTDFTLTISSLQPEDFATYYCQQHYKTPFTFGQGTKLEIKRGGSGGGGSGDIQMTQSPSSLSASVGDRVTITCSASQGIRSYIDWFQQKPGKSPKRLIYATFDLASGVPSRFSGSGSGTDYTLTISSLQPEDFATYYCRQVGNYPGTFGQGTKLEIKRTVAAPSVFIFPPSDEQLKSGTASVVCLLNNFYPREAKVQWKVDNALQSGNSQESVTEQDSKDSTYSLSSTLTLSKADYEKHKVYACEVTHQGLSSPVTKSFNRGEC
notes: DVD-Ig; IgG1 234,235 mut, kappa; GS10 linkers; also called hMAK195-21-GS10-A6 DVD
B2: hMAK195-24-h10F7-A6.8 DVD-Ig (bispecific antibody, human IgG1, kappa, L234A L235A)
heavy: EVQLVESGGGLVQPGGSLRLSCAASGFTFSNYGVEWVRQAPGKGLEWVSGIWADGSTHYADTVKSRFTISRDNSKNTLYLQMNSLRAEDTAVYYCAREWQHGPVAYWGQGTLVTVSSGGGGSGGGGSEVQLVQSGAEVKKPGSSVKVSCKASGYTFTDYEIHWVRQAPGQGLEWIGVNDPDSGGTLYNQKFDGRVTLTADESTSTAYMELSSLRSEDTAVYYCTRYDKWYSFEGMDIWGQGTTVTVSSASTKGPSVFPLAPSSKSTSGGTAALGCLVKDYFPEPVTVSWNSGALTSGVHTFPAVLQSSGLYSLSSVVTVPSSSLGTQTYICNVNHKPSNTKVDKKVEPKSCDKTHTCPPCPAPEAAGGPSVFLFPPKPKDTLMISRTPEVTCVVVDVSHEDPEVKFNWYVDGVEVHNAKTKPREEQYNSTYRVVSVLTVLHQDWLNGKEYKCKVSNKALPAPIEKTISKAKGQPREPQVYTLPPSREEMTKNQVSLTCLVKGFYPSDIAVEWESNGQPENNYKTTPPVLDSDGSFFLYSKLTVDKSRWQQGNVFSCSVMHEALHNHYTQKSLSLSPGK
light: DIQMTQSPSSLSASVGDRVTITCKASQLVSSAVAWYQQKPGKAPKLLIYWASTLHTGVPSRFSGSGSGTDFTLTISSLQPEDFATYYCQQHYRTPFTFGQGTKLEIKRGGSGGGGSGDIQMTQSPSSLSASVGDRVTITCSASQGIRSYIDWFQQKPGKSPKRLIYATFDLASGVPSRFSGSGSGTDYTLTISSLQPEDFATYYCRQVGNYPGTFGQGTKLEIKRTVAAPSVFIFPPSDEQLKSGTASVVCLLNNFYPREAKVQWKVDNALQSGNSQESVTEQDSKDSTYSLSSTLTLSKADYEKHKVYACEVTHQGLSSPVTKSFNRGEC
notes: DVD-Ig; IgG1 234,235 mut, kappa; GS10 linkers; also called hMAK195-24-GS10-A6 DVD
B3: hMAK195-21-h10F7-A16.8 DVD-Ig (bispecific antibody, human IgG1, kappa, L234A L235A)
heavy: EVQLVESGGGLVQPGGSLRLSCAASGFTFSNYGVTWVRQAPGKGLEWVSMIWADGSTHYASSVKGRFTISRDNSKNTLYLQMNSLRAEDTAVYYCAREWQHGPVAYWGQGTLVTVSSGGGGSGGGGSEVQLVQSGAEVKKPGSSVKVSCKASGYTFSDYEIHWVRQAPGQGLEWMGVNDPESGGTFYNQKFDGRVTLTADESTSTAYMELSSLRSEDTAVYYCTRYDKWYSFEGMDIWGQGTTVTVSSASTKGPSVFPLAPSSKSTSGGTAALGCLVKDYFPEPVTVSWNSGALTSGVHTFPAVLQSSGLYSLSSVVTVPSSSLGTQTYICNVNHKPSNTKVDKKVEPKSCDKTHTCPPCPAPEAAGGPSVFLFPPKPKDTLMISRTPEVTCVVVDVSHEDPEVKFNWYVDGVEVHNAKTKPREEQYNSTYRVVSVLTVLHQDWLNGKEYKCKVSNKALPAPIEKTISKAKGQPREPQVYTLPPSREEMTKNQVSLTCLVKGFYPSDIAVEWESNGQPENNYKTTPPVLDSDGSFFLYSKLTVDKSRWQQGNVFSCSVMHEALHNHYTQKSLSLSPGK
light: DIQMTQSPSSLSASVGDRVTITCRASQLVSSAVAWYQQKPGKAPKLLIYWASARHTGVPSRFSGSGSGTDFTLTISSLQPEDFATYYCQQHYKTPFTFGQGTKLEIKRGGSGGGGSGDIQMTQSPSSLSASVGDRVTITCSASQGIRSYIDWFQQKPGKSPKRLIYATFDLASGVPSRFSGSGSGTDYTLTISSLQPEDFATYYCRQVGNYPGTFGQGTKLEIKRTVAAPSVFIFPPSDEQLKSGTASVVCLLNNFYPREAKVQWKVDNALQSGNSQESVTEQDSKDSTYSLSSTLTLSKADYEKHKVYACEVTHQGLSSPVTKSFNRGEC
notes: DVD-Ig; IgG1 234,235 mut, kappa; GS10 linkers; light chain shared with the A6 DVD-Ig; also called ShMAK195-21-h10F7-A16.8 DVD-Ig; hMAK195-21-GS10-A16 DVD
B4: hMAK195-24-h10F7-A16.8 DVD-Ig (bispecific antibody, human IgG1, kappa, L234A L235A)
heavy: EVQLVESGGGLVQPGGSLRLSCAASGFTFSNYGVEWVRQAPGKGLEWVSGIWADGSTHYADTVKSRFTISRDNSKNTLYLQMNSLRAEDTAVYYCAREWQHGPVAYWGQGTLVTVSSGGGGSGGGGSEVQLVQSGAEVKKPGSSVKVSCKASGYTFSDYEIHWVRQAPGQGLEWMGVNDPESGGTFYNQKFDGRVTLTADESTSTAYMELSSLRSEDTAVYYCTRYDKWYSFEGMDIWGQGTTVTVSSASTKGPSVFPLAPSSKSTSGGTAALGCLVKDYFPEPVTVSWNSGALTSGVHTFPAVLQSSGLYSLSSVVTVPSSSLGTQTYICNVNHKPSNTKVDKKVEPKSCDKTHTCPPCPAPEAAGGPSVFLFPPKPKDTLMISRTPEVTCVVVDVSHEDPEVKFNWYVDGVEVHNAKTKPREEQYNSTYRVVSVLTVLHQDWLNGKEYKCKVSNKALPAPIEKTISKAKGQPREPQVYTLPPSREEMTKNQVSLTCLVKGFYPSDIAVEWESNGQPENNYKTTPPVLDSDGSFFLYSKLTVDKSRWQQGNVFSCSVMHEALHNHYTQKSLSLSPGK
light: DIQMTQSPSSLSASVGDRVTITCKASQLVSSAVAWYQQKPGKAPKLLIYWASTLHTGVPSRFSGSGSGTDFTLTISSLQPEDFATYYCQQHYRTPFTFGQGTKLEIKRGGSGGGGSGDIQMTQSPSSLSASVGDRVTITCSASQGIRSYIDWFQQKPGKSPKRLIYATFDLASGVPSRFSGSGSGTDYTLTISSLQPEDFATYYCRQVGNYPGTFGQGTKLEIKRTVAAPSVFIFPPSDEQLKSGTASVVCLLNNFYPREAKVQWKVDNALQSGNSQESVTEQDSKDSTYSLSSTLTLSKADYEKHKVYACEVTHQGLSSPVTKSFNRGEC
notes: DVD-Ig; IgG1 234,235 mut, kappa; GS10 linkers; light chain shared with the A6 DVD-Ig; also called hMAK195-24-GS10-A16 DVD
B5: hMAK195-24-h10F7-A11.8 DVD-Ig (bispecific antibody, human IgG1, kappa, L234A L235A)
heavy: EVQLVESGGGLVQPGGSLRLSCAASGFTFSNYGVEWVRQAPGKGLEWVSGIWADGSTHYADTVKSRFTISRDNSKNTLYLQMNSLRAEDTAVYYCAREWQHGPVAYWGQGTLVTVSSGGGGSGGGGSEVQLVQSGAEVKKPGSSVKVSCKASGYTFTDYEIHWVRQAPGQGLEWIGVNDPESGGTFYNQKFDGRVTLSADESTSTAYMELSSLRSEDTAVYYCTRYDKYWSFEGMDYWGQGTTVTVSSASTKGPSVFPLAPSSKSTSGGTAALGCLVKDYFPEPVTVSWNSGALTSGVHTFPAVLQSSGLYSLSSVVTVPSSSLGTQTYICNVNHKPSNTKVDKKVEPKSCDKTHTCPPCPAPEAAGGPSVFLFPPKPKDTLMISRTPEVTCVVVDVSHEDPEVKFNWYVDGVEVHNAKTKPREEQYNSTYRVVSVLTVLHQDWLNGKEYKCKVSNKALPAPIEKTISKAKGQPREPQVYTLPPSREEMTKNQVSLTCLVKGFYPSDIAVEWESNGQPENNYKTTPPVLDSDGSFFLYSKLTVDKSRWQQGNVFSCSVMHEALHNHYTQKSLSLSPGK
light: DIQMTQSPSSLSASVGDRVTITCKASQLVSSAVAWYQQKPGKAPKLLIYWASTLHTGVPSRFSGSGSGTDFTLTISSLQPEDFATYYCQQHYRTPFTFGQGTKLEIKRGGSGGGGSGDIQMTQSPSSLSASVGDRVTITCRASSGIISYIDWFQQKPGKAPKRLIYATFDLASGVPSRFSGSGSGTDYTLTISSLQPEDFATYYCRQVGSYPETFGQGTKLEIKRTVAAPSVFIFPPSDEQLKSGTASVVCLLNNFYPREAKVQWKVDNALQSGNSQESVTEQDSKDSTYSLSSTLTLSKADYEKHKVYACEVTHQGLSSPVTKSFNRGEC
notes: DVD-Ig; IgG1 234,235 mut, kappa; GS10 linkers; also called hMAK195-24-GS10-A11 DVD
B6: hMAK199-6-h10F7-M10.8 DVD-Ig (bispecific antibody, human IgG1, kappa, L234A L235A)
heavy: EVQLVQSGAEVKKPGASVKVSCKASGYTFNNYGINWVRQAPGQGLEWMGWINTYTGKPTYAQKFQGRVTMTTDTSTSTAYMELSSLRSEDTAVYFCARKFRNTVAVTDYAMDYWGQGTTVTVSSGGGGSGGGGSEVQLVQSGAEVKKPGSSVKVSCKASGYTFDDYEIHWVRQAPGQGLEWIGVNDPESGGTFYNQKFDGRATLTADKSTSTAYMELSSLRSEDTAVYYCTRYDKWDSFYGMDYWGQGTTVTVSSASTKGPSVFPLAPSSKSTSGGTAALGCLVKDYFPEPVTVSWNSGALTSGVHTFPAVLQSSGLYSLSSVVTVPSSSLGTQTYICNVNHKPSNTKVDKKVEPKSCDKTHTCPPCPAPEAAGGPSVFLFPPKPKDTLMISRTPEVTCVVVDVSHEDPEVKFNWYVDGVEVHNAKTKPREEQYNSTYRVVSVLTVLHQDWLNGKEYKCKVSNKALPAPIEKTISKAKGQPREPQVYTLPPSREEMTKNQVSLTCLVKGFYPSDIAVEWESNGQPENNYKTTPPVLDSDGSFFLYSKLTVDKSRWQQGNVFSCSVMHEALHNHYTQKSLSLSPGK
light: DIQMTQSPSSLSASVGDRVTITCRASQDIYDVLNWYQQKPGKAPKLLIYYASRLQSGVPSRFSGSGSGTDFTLTISSLQPEDFATYYCQQGITLPPTFGQGTKLEIKRGGSGGGGSGDIQMTQSPSSLSASVGDRVTITCSASSGSISYIDWFQQKPGKAPKRLIYATFELASGVPSRFSGSGSGTDFTLTISSLQPEDFATYYCHQLGSYPDTFGQGTKLEIKRTVAAPSVFIFPPSDEQLKSGTASVVCLLNNFYPREAKVQWKVDNALQSGNSQESVTEQDSKDSTYSLSSTLTLSKADYEKHKVYACEVTHQGLSSPVTKSFNRGEC
notes: DVD-Ig; IgG1 234,235 mut, kappa; GS10 linkers; also called HMAK199-6-GS10-H10F7-M10 DVD
B7: hMAK199-6-h10F7-M11.8 DVD-Ig (bispecific antibody, human IgG1, kappa, L234A L235A)
heavy: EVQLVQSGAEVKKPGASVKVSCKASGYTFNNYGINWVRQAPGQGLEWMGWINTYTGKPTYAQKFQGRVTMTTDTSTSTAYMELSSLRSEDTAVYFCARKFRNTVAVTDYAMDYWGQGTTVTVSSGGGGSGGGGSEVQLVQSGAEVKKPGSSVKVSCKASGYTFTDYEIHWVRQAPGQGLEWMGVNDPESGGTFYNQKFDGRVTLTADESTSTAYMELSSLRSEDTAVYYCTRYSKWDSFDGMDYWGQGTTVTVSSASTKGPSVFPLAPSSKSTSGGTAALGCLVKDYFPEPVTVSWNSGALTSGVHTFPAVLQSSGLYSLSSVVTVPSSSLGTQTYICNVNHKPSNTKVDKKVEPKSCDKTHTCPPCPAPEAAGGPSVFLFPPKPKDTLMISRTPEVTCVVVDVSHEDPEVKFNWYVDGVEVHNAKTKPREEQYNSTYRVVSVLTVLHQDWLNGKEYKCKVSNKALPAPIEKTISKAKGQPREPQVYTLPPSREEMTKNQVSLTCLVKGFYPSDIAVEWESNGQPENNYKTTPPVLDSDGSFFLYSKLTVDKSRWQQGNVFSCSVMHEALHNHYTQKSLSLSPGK
light: DIQMTQSPSSLSASVGDRVTITCRASQDIYDVLNWYQQKPGKAPKLLIYYASRLQSGVPSRFSGSGSGTDFTLTISSLQPEDFATYYCQQGITLPPTFGQGTKLEIKRGGSGGGGSGDIQMTQSPSSLSASVGDRVTITCRASSGIISYIDWFQQKPGKAPKRLIYATFDLASGVPSRFSGSGSGTDYTLTISSLQPEDFATYYCRQVGSYPETFGQGTKLEIKRTVAAPSVFIFPPSDEQLKSGTASVVCLLNNFYPREAKVQWKVDNALQSGNSQESVTEQDSKDSTYSLSSTLTLSKADYEKHKVYACEVTHQGLSSPVTKSFNRGEC
notes: DVD-Ig; IgG1 234,235 mut, kappa; GS10 linkers; also called HMAK199-6-GS10-H10F7-M11 DVD
B8: hMAK195-24-h10F7-M11.4 DVD-Ig wt (bispecific antibody, human IgG1, kappa)
heavy: not shown
light: DIQMTQSPSSLSASVGDRVTITCKASQLVSSAVAWYQQKPGKAPKLLIYWASTLHTGVPSRFSGSGSGTDFTLTISSLQPEDFATYYCQQHYRTPFTFGQGTKLEIKRTVAAPDIQMTQSPSSLSASVGDRVTITCRASSGIISYIDWFQQKPGKAPKRLIYATFDLASGVPSRFSGSGSGTDYTLTISSLQPEDFATYYCRQVGSYPETFGQGTKLEIKRTVAAPSVFIFPPSDEQLKSGTASVVCLLNNFYPREAKVQWKVDNALQSGNSQESVTEQDSKDSTYSLSSTLTLSKADYEKHKVYACEVTHQGLSSPVTKSFNRGEC
notes: DVD-Ig; wild-type IgG1 (CG1 Z NONA), kappa; short (SS) linkers ASTKGP / TVAAP; also called HMAK195-24-SS-H10F7-M11 DVD

Target: T1, Human IL-17A (human, UniProt Q16552 20-155, limits assumed)
T1 construct: Biotinylated in the ELISAs; purified recombinant protein in SPR; also called hIL17A; hIL-17
T1 sequence (Q16552 20-155 limits assumed): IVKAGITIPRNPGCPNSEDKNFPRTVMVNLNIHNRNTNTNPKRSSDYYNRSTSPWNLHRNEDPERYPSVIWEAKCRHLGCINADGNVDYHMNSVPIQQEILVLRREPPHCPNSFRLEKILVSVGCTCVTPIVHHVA
Experiment: ELISA, captured DVD-Ig, biotin-human IL-17 titrated
Procedure: The following protocol is used to characterize the binding of TNF/IL-17 DVD-Ig proteins to human TNF and IL-17 by enzyme-linked immunosorbent assay (ELISA). An ELISA plate was coated with 50 μl per well of goat anti mouse IgG-Fc at 2 μg/ml, overnight at 4° C. The plate was washed 3 times with PBS/Tween. 50 μl Mab diluted to 1 μg/ml in PBS/0.1% BSA was added to appropriate wells and incubated for 1 hour at room temperature (RT). The plate was washed 3 times with PBS/Tween. 50 μl of serial diluted biotin-human TNF or IL-17 was added to appropriate wells and incubated for 1 hour at RT. The plate was washed 3 times with PBS/Tween. 50 μl of streptavidin-HRP diluted 1:10,000 in PBS/0.1% BSA was added to appropriate wells and incubated for 1 hour at RT. The plate was washed 3 times with PBS/Tween. 50 μl of TMB was added to appropriate wells and the reaction allowed to proceed for 1 minute. The reaction was stopped with 50 μl/well 2N H₂SO₄ and the absorbance read at 450 nm.

Binder	EC50 [nM]
B1	0.13
B2	0.188
B3	0.23
B4	0.093
B5	0.295
B6	0.163
B7	0.104
B8	> 0.5

From patent US20140161804A1 (AbbVie / Abbott, published 2014)
